Measurements: patent US20260242735A1 (UNIVERSIT T BASEL, published 2026)
Each block holds one binder with its values, some of them ahead of it.

Key:
[1] = target: CD33 variant W22E (recombinant, biotinylated) (human, UniProt P20138 18-259, biotinylated with EZ-Link Sulfo-NHS-LC-Biotin (sites not given)); test: BLI (Octet R8), avidity format: biotinylated CD33 on streptavidin sensor, Refmab #4 as analyte at 500 nM;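 note: analyte association recorded over 300 s, followed by a 900 s dissociation phase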
[2] = target: CD33 variant Y50R (recombinant, biotinylated) (human, UniProt P20138 18-259, biotinylated with EZ-Link Sulfo-NHS-LC-Biotin (sites not given)); test: as above
Chain of CD33 variant Y50R (recombinant, biotinylated) (P20138 other isoform, or with tags, fused parts or gaps Y50R Y50R): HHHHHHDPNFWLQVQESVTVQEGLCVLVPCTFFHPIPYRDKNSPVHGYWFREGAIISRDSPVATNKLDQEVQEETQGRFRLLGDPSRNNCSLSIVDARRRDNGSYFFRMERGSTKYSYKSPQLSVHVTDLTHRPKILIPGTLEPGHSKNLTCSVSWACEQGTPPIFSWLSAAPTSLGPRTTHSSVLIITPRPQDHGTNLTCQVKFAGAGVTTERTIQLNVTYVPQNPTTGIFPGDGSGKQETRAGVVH

[3] = target: CD33 variant N20G (recombinant, biotinylated) (human, UniProt P20138 21-259, biotinylated with EZ-Link Sulfo-NHS-LC-Biotin (sites not given)); test: as above
Chain of CD33 variant N20G (recombinant, biotinylated) (P20138 other isoform, or with tags, fused parts or gaps N20G N20G): as the sequence (P20138 other isoform, or with tags, fused parts or gaps Y50R Y50R) above, with N9G, R39Y counted along it

[4] = target: CD33 double variant Y50H_H49H (recombinant, biotinylated) (human, UniProt P20138 18-259, biotinylated with EZ-Link Sulfo-NHS-LC-Biotin (sites not given)); test: as above
Chain of CD33 double variant Y50H_H49H (recombinant, biotinylated) (P20138 other isoform, or with tags, fused parts or gaps Y50H H49H Y50H H49H): as the sequence (P20138 other isoform, or with tags, fused parts or gaps Y50R Y50R) above, with Y38H, R39H counted along it

[5] = target: CD33 variant F21Q (recombinant, biotinylated) (human, UniProt P20138 22-259, biotinylated with EZ-Link Sulfo-NHS-LC-Biotin (sites not given)); test: as above
Chain of CD33 variant F21Q (recombinant, biotinylated) (P20138 other isoform, or with tags, fused parts or gaps F21Q F21Q): as the sequence (P20138 other isoform, or with tags, fused parts or gaps Y50R Y50R) above, with F10Q, R39Y counted along it

[6] = target: CD33 variant F21V (recombinant, biotinylated) (human, UniProt P20138 22-259, biotinylated with EZ-Link Sulfo-NHS-LC-Biotin (sites not given)); test: as above
Chain of CD33 variant F21V (recombinant, biotinylated) (P20138 other isoform, or with tags, fused parts or gaps F21V F21V): as the sequence (P20138 other isoform, or with tags, fused parts or gaps Y50R Y50R) above, with F10V, R39Y counted along it

[7] = target: CD33 variant W22R (recombinant, biotinylated) (human, UniProt P20138 18-259, biotinylated with EZ-Link Sulfo-NHS-LC-Biotin (sites not given)); test: as above
Chain of CD33 variant W22R (recombinant, biotinylated) (P20138 other isoform, or with tags, fused parts or gaps W22R W22R): as the sequence (P20138 other isoform, or with tags, fused parts or gaps Y50R Y50R) above, with W11R, R39Y counted along it

[8] = target: CD33 variant F21N (recombinant, biotinylated) (human, UniProt P20138 22-259, biotinylated with EZ-Link Sulfo-NHS-LC-Biotin (sites not given)); test: as above
[9] = target: CD33 variant F21H (recombinant, biotinylated) (human, UniProt P20138 22-259, biotinylated with EZ-Link Sulfo-NHS-LC-Biotin (sites not given)); test: as above
[10] = target: CD33 variant F44P (recombinant, biotinylated) (human, UniProt P20138 18-259, biotinylated with EZ-Link Sulfo-NHS-LC-Biotin (sites not given)); test: as above
[11] = target: CD33 variant N20V (recombinant, biotinylated) (human, UniProt P20138 21-259, biotinylated with EZ-Link Sulfo-NHS-LC-Biotin (sites not given)); test: as above
Chain of CD33 variant N20V (recombinant, biotinylated) (P20138 other isoform, or with tags, fused parts or gaps N20V N20V): as the sequence (P20138 other isoform, or with tags, fused parts or gaps Y50R Y50R) above, with N9V, R39Y counted along it

[12] = target: CD33 variant W22T (recombinant, biotinylated) (human, UniProt P20138 18-259, biotinylated with EZ-Link Sulfo-NHS-LC-Biotin (sites not given)); test: as above
[13] = target: T1, CD33 wild type (recombinant, biotinylated) (human, UniProt P20138 18-259, biotinylated with EZ-Link Sulfo-NHS-LC-Biotin (sites not given)); test: as above
T1 construct: also called WT; CD33 wt
T1 sequence (P20138 other isoform, or with tags, fused parts or gaps): as the sequence (P20138 other isoform, or with tags, fused parts or gaps Y50R Y50R) above, with R39Y counted along it

[14] = target: CD33 variant N20H (recombinant, biotinylated) (human, UniProt P20138 21-259, biotinylated with EZ-Link Sulfo-NHS-LC-Biotin (sites not given)); test: as above
Chain of CD33 variant N20H (recombinant, biotinylated) (P20138 other isoform, or with tags, fused parts or gaps N20H N20H): as the sequence (P20138 other isoform, or with tags, fused parts or gaps Y50R Y50R) above, with N9H, R39Y counted along it

[15] = target: CD33 variant W22K (recombinant, biotinylated) (human, UniProt P20138 18-259, biotinylated with EZ-Link Sulfo-NHS-LC-Biotin (sites not given)); test: as above
Chain of CD33 variant W22K (recombinant, biotinylated) (P20138 other isoform, or with tags, fused parts or gaps W22K W22K): as the sequence (P20138 other isoform, or with tags, fused parts or gaps Y50R Y50R) above, with W11K, R39Y counted along it

[16] = target: CD33 variant N20E (recombinant, biotinylated) (human, UniProt P20138 21-259, biotinylated with EZ-Link Sulfo-NHS-LC-Biotin (sites not given)); test: as above
Chain of CD33 variant N20E (recombinant, biotinylated) (P20138 other isoform, or with tags, fused parts or gaps N20E N20E): as the sequence (P20138 other isoform, or with tags, fused parts or gaps Y50R Y50R) above, with N9E, R39Y counted along it

[17] = target: CD33 variant F21L (recombinant, biotinylated) (human, UniProt P20138 22-259, biotinylated with EZ-Link Sulfo-NHS-LC-Biotin (sites not given)); test: as above
Chain of CD33 variant F21L (recombinant, biotinylated) (P20138 other isoform, or with tags, fused parts or gaps F21L F21L): as the sequence (P20138 other isoform, or with tags, fused parts or gaps Y50R Y50R) above, with F10L, R39Y counted along it

[18] = target: CD33 variant Y50D (recombinant, biotinylated) (human, UniProt P20138 18-259, biotinylated with EZ-Link Sulfo-NHS-LC-Biotin (sites not given)); test: as above
[19] = target: CD33 variant Y50K (recombinant, biotinylated) (human, UniProt P20138 18-259, biotinylated with EZ-Link Sulfo-NHS-LC-Biotin (sites not given)); test: as above
Chain of CD33 variant Y50K (recombinant, biotinylated) (P20138 other isoform, or with tags, fused parts or gaps Y50K Y50K): as the sequence (P20138 other isoform, or with tags, fused parts or gaps Y50R Y50R) above, with R39K counted along it

[20] = target: CD33 variant W22D (recombinant, biotinylated) (human, UniProt P20138 18-259, biotinylated with EZ-Link Sulfo-NHS-LC-Biotin (sites not given)); test: as above
Chain of CD33 variant W22D (recombinant, biotinylated) (P20138 other isoform, or with tags, fused parts or gaps W22D W22D): as the sequence (P20138 other isoform, or with tags, fused parts or gaps Y50R Y50R) above, with W11D, R39Y counted along it

[21] = target: CD33 variant N20K (recombinant, biotinylated) (human, UniProt P20138 21-259, biotinylated with EZ-Link Sulfo-NHS-LC-Biotin (sites not given)); test: as above
Chain of CD33 variant N20K (recombinant, biotinylated) (P20138 other isoform, or with tags, fused parts or gaps N20K N20K): as the sequence (P20138 other isoform, or with tags, fused parts or gaps Y50R Y50R) above, with N9K, R39Y counted along it

[22] = target: CD33 variant F21S (recombinant, biotinylated) (human, UniProt P20138 22-259, biotinylated with EZ-Link Sulfo-NHS-LC-Biotin (sites not given)); test: as above
[23] = target: CD33 variant F21I (recombinant, biotinylated) (human, UniProt P20138 22-259, biotinylated with EZ-Link Sulfo-NHS-LC-Biotin (sites not given)); test: as above
Chain of CD33 variant F21I (recombinant, biotinylated) (P20138 other isoform, or with tags, fused parts or gaps F21I F21I): as the sequence (P20138 other isoform, or with tags, fused parts or gaps Y50R Y50R) above, with F10I, R39Y counted along it

[24] = target: CD33 variant F21M (recombinant, biotinylated) (human, UniProt P20138 22-259, biotinylated with EZ-Link Sulfo-NHS-LC-Biotin (sites not given)); test: as above
Chain of CD33 variant F21M (recombinant, biotinylated) (P20138 other isoform, or with tags, fused parts or gaps F21M F21M): as the sequence (P20138 other isoform, or with tags, fused parts or gaps Y50R Y50R) above, with F10M, R39Y counted along it

human wild-type CD33 = target: T2, human wild-type CD33 (human, UniProt P20138 18-364); test: flow cytometry, IgG at 0.25 ug/ml on HEK293-T cells expressing CD33 against vector alone
T2 construct: also called SIGLEC3; P67
T2 sequence (P20138 18-364 limits assumed): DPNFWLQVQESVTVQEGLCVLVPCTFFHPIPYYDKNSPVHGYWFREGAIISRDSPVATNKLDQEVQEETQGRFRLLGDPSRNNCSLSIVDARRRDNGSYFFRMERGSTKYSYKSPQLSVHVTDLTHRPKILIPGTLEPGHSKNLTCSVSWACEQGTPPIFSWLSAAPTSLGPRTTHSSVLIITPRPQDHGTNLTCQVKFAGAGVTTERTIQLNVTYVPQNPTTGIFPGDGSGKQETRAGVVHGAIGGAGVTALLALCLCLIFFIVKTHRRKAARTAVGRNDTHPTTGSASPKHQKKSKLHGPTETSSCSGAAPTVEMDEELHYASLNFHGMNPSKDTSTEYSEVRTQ

[25] = target: T3, CD33 variant W22R on base-edited human CD34+ HSPCs (human, UniProt P20138 18-364); test: flow cytometry sorting and NGS of sgRNA-E base-edited human CD34+ HSPCs
T3 construct: also called sgRNA-E edited CD33

% WT binding [1]: 136 % WT binding
% WT binding [2]: 0 % WT binding
% WT binding [3]: 89 % WT binding
% WT binding [4]: 0 % WT binding
% WT binding [5]: 122 % WT binding
% WT binding [6]: 96 % WT binding
% WT binding [7]: 87.2 % WT binding
% WT binding [8]: 108 % WT binding
% WT binding [9]: 103 % WT binding
% WT binding [10]: 73.9 % WT binding
% WT binding [11]: 99.5 % WT binding
% WT binding [12]: 100 % WT binding
% WT binding [13]: 100 % WT binding
% WT binding [14]: 87.7 % WT binding
% WT binding [15]: 99.3 % WT binding
% WT binding [16]: 111 % WT binding
% WT binding [17]: 88.3 % WT binding
% WT binding [18]: 0 % WT binding
% WT binding [19]: 0 % WT binding
% WT binding [20]: 129 % WT binding
% WT binding [21]: 79.4 % WT binding
% WT binding [22]: 106 % WT binding
% WT binding [23]: 91 % WT binding
% WT binding [24]: 122 % WT binding
B1: Refmab #4 (antibody, human IgG1, V domains shown)
VH: QVQLVQSGAEVKKPGESVKVSCKASGYTFTNYGMNWVKQAPGQGLEWMGWINTYTGEPTYADKFQGRVTMTTDTSTSTAYMEIRNLGGDDTAVYYCARWSWSDGYYVYFDYWGQGTSVTVSS
VL: DIVMTQSPDSLTVSLGERTTINCKSSQSVLDSSTNKNSLAWYQQKPGQPPKLLLSWASTRESGIPDRFSGSGSGTDFTLTIDSPQPEDSATYYCQQSAHFPITFGQGTRLEIK

Signal:Background (human wild-type CD33): 35 signal:background ratio
binding result [25]: no binding
B2: Refmab #3 (antibody, V domains shown)
VH: QVQLVQSGAEVKKPGSSVKVSCKASGYTFTDYNMHWVRQAPGQGLEWIGYIYPYNGGTGYNQKFKSKATITADESTNTAYMELSSLRSEDTAVYYCARGRPAMDYWGQGTLVTVSS
VL: DIQMTQSPSSLSASVGDRVTITCRASESVDNYGISFMNWFQQKPGKAPKLLIYAASNQGSGVPSRFSGSGSGTDFTLTISSLQPDDFATYYCQQSKEVPWTFGQGTKVEIK
notes: Full-length MAb format, human IgG1 Fc silent (PG-LALA)
